Patent US20100286365A1 (AMYLIN PHARMACEUTICALS, published 2010)
Like-named read-outs stand apart in the source and are kept apart here. Where no end group is shown, it is not given here. Side-chain parts run from the residue outwards. [ ]: non-standard residue; d: D form. lisinopril monoester = lisinopril with its ethyl ester not hydrolysed, amide-linked to γ-Abu; linker type G21 = not defined here; linker type C9 = not defined here; pGlu = O=C1CC[C@@H](C(=O)O)N1; AEEA = NCCOCCOCC(=O)O; GABA = NCCCC(=O)O

Key:
Recombinant DPP-IV [1] = assay: cell-based or functional assay
ACE from rabbit lung [2] = target: T1, ACE from rabbit lung (rabbit, UniProt P12822 34-1310, limits assumed); assay: cell-based or functional assay
T1 sequence (looked up): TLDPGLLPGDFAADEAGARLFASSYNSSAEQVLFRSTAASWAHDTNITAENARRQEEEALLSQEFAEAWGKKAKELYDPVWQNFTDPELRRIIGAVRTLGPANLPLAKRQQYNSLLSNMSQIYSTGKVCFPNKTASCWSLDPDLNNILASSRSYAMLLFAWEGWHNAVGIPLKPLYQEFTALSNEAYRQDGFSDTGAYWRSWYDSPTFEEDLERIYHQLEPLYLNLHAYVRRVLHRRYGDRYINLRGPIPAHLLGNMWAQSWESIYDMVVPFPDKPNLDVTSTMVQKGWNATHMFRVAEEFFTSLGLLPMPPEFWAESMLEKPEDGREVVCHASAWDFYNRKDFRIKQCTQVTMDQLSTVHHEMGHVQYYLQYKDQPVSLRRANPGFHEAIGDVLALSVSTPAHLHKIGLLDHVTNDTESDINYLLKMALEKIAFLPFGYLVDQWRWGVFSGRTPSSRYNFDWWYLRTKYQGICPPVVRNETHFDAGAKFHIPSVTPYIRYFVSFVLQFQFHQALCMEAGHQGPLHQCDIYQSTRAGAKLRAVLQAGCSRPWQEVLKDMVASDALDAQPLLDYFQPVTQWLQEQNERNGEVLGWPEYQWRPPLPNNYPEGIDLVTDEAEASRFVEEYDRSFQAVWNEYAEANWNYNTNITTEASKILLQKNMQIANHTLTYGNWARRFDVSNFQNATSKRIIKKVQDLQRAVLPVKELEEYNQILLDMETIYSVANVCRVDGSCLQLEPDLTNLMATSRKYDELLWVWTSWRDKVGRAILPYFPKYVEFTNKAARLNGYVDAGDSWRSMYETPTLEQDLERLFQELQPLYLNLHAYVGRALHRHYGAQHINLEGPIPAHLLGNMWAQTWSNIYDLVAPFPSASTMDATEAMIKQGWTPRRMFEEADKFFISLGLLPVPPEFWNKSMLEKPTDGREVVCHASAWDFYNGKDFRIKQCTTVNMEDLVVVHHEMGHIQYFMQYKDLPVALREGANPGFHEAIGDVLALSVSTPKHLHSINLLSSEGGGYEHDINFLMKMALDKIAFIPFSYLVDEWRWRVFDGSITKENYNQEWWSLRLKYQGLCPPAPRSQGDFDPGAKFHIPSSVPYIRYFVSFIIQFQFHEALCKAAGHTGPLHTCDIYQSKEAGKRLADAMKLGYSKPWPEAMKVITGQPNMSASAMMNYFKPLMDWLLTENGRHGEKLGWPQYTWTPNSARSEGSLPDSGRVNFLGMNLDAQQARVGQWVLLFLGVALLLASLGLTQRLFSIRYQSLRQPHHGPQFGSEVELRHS

[3] = target: T2, GLP-1 receptor endogenously expressed by RIN m5f cells (UniProt P32301 22-463, limits assumed); assay: cell-based or functional assay
T2 sequence (looked up): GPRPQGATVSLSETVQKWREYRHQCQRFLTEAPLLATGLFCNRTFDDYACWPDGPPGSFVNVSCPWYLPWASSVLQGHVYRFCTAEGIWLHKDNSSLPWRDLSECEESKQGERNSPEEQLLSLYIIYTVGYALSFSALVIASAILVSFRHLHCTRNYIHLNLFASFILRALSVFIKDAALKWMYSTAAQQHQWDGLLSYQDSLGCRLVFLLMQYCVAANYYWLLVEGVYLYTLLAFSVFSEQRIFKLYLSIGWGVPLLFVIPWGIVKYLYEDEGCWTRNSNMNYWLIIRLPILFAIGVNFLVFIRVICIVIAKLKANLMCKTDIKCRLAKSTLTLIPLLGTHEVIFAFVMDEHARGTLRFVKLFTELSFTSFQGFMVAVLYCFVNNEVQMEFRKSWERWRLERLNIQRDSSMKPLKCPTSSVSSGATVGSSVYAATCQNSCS

Recombinant DPP-IV [4] = assay: cell-based or functional assay; remark: listed apart in the source
[5] = target: T2, GLP-1 receptor endogenously expressed …; assay: displacement of [125I]GLP-1 tracer from RIN m5f cell membranes (endogenous GLP-1 receptor), filter binding
Description: Membrane fractions were prepared from confluent cultures of RIN m5f cells. […] The reaction mixtures were constantly mixed at 23° C. for 2 hours. The reaction mixtures were filtered through glass filter pads presoaked with 0.3% PEI solution and rinsed with ice-cold phosphate buffered saline. Counts bound to the filer pads were determined using a scintillation counter and binding affinities were calculated using GraphPad PRISM® software (GraphPad Software, Inc., San Diego, Calif.).

ACE from rabbit lung [6] = target: T1, ACE from rabbit lung; assay: cell-based or functional assay; remark: listed apart in the source
[7] = target: T3, GLP-1 receptor endogenously expressed by the thyroid c-cell carcinoma line 6-23 (UniProt P32301 22-463); assay: cell-based or functional assay
T3 sequence (looked up): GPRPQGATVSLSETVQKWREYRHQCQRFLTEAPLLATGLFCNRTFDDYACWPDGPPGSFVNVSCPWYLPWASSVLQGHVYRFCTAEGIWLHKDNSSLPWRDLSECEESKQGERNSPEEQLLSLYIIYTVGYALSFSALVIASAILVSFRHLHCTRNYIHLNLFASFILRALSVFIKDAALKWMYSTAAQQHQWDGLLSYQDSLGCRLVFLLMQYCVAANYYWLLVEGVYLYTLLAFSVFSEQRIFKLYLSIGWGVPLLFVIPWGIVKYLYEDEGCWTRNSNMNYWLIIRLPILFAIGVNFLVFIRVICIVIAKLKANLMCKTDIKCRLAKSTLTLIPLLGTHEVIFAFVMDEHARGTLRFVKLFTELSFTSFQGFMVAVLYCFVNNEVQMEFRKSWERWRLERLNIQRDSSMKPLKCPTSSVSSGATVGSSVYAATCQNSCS

human GIP receptor = target: T4, human GIP receptor (human, UniProt P48546 22-466); assay: displacement of 30 pM 125I-GIP from HEK-GIPR membranes by 10 nM conjugate, relative to human GIP (100%)
T4 construct: whole, on cells; Membrane fractions of HEK-GIPR cells were used; also called HEK-GIPR
T4 sequence (looked up): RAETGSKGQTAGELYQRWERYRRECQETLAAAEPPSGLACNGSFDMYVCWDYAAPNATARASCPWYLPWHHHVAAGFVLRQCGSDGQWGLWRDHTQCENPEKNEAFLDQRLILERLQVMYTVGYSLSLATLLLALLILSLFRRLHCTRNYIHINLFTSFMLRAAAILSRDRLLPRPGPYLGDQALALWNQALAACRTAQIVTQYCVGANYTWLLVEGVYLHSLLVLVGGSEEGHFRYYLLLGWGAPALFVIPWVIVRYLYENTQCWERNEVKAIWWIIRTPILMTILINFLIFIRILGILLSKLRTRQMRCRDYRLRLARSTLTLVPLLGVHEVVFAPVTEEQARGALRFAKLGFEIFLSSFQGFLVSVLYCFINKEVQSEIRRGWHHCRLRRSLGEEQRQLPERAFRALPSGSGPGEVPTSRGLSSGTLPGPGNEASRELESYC
Description: Membrane fractions were prepared from confluent cell cultures of HEK-GIPR, snap frozen, and stored at −80° C. until use. […] Reactions were allowed to proceed to equilibrium for 90 minutes at room temperature with constant shaking. The reaction mixtures were then filtered through 96-well glass fiber filter plates separating bound and unbound fractions of radioligand.

Which “DPP-IV inhibition IC50” value (Recombinant DPP-IV [1]) does the source give for IPI [Diprotin A (Ile-Pro-Ile)] here?
The value was 5100 nM.

HAEGTFTSDVSSYLEGQAAKEFIAWLVKGRG-{GABA-lisinopril monoester} [GLP-1(7-37)-γ-Abu-CONH-lisinopril monoester] was tested. Which “ACE inhibition IC50” value (ACE from rabbit lung [2]) did it give?
The value was > 100000 nM.

B1: GLP-1(7-37)-GG-(S)-2,6-diamino-1-(thiazolidin-3-yl)hexan-1-one amide (peptide)
peptide: HAEGTFTSDVSSYLEGQAAKEFIAWLVKGRGGG
modifications: C-terminal Gly amide-linked to (S)-2,6-diamino-1-(thiazolidin-3-yl)hexan-1-one (Lys-thiazolidide, DPP-IV inhibitor motif)
notes: also called Cmpd 4844; 4844
For B1, which “GLP Cyclase EC50” value [3] is on record?
The value was 0.13 nM.

What about the “DPP-IV IC50” value (Recombinant DPP-IV [4]) of the same binder?
The value was 91 nM.

And the IC50 [5]?
The IC50 was 0.087 nM.

With HAEGTFTSDVSSYLEGQAAKEFIAWLVKGRG (C-terminus extended by γ-Abu-β-Ala and amide-linked (CONH) to lisinopril diacid) [GLP-1(7-37)-γ-Abu-β-Ala-CONH-lisinopril diacid] as the binder, how does the “ACE inhibition IC50” value (ACE from rabbit lung [2]) read?
The value was 180 nM.

B2: GLP-1(7-37)-γ-Abu-N^ε2Lys-(Pyr)-WAP-OH (peptide)
peptide 1: HAEGTFTSDVSSYLEGQAAKEFIAWLVKGRG
peptide 2: [pGlu]KWAP-OH
modifications: not fully specified (C-terminus); also: linker at chain B 2 to a chain's C-terminus via γ-Abu
How did the “ACE inhibition IC50” value (ACE from rabbit lung [2]) turn out when B2 was run?
The value was > 10000 nM.

B3: GLP-1(7-37)-GG-(S)-2,6-diamino-1-(thiazolidin-2-cyano-3-yl)hexan-1-one amide (peptide)
peptide: HAEGTFTSDVSSYLEGQAAKEFIAWLVKGRGGG
modifications: C-terminal Gly amide-linked to (S)-2,6-diamino-1-(thiazolidin-2-cyano-3-yl)hexan-1-one (Lys-2-cyanothiazolidide, DPP-IV inhibitor motif)
notes: also called Cmpd 4845; 4845
Which results are given for B3?
GLP Cyclase EC50 [3]: 0.4 nM; DPP-IV IC50 (Recombinant DPP-IV [4]): 76 nM; IC50 [5]: 0.1 nM

For HAEGTFTSDVSSYLEGQAAKEFIAWLVKGRG (lisinopril joined at the C-terminus through linker type C9 (FIG. 2)) [Compound 5547], which “ACE inhibition IC50” value (ACE from rabbit lung [6]) is on record?
Its value is 180 nM.

With HAEGTFTSDVSSYLEGQAAKEFIAWLVKGRG (lisinopril joined at the C-terminus through linker type G21 (FIG. 2)) [Compound 5607] as the binder, how does the “ACE inhibition IC50” value (ACE from rabbit lung [6]) read?
Its value is 100 nM.

How did the “GLP Cyclase EC50” value [7] turn out when HAEGTFTSDVTQQLDEKAAKEFIDWLINGGPSKEIIS-{linker type G21-lisinopril} (reading uncertain) [Compound 5713] was run?
Its value is 2.89 nM.

And the “ACE inhibition IC50” value (ACE from rabbit lung [6])?
The value was 700 nM.

For HAEGTFTSDVTQQLDEKAAKEFIDWLINGGPSKEIIS-{linker type C9-lisinopril} (reading uncertain) [Compound 5714], which “GLP Cyclase EC50” value [7] is on record?
The value was 2.93 nM.

And the “ACE inhibition IC50” value (ACE from rabbit lung [6])?
The value was 350 nM.

HAEGTFTSDVTQQLDEKAAKEFIDWLINGGPSKEIIS [Compound 4202] was tested. Which “GLP Cyclase EC50” value [7] did it give?
The value was 0.03 nM.

How did the “DPP-IV IC50” value (Recombinant DPP-IV [4]) turn out when HAEGTFTSDVSSYLEGQAAKEFIAWLVKGR-NH2 [GLP-1] was run?
Its value is > 3300 nM.

Which “GIP RBA % inhibition at 10 nM” value (human GIP receptor) does the source give for YAEGTFISDYSIAMDKIHQQDFVNWLLAQK([AEEA-γ‑L‑Glu‑2‑(S)‑cyano pyrrolidyl]) [Lys^30 N-ε-(Ado-(γ-L-Glu-2-(S)-cyano pyrrolidyl)) GIP(1-30)] here?
Its value is 33%.

Which “GIP RBA % inhibition at 10 nM” value (human GIP receptor) does the source give for YAEGTFISDYSIALDKIHQQDFVNWLLAQK-{AEEA-Lys‑N‑ε‑(2-(S)-cyano pyrrolidyl)} [[^14Leu] GIP(1-30)-Ado-Lys-N-ε-(2-(S)-cyano pyrrolidyl)] here?
The value was 100%.

How did the “GIP RBA % inhibition at 10 nM” value (human GIP receptor) turn out when YAEGTFISDYSIAMDKIHQQDFVNWLLAQK (not fully specified (N-terminus)) [N-(γ-L-Glu-2-(S)-cyano pyrrolidyl)-Ado-Ado) GIP(1-30)] was run?
The value was 32%.

Which “GIP RBA % inhibition at 10 nM” value (human GIP receptor) does the source give for YAEGTFISDYSIAMDKIHQQDFVNWLLAQK (C-terminus extended by Ado-Lys-N-ε-(2-(S)-cyano pyrrolidyl)) [GIP(1-30)-Ado-Lys-N-ε-(2-(S)-cyano pyrrolidyl)] here?
Its value is 99%.

YAEGTFISDYSIAMDKIHQQDFVNWLLAQK (C-terminus extended by Ado-Ado-Lys-N-ε-(2-(S)-cyano pyrrolidyl)) [GIP(1-30)-Ado-Ado-Lys-N-ε-(2-(S)-cyano pyrrolidyl)] was tested. Which “GIP RBA % inhibition at 10 nM” value (human GIP receptor) did it give?
The value was 97%.

B4: [^2D-Ala^14Leu] GIP(1-30)-βAla-βAla-ε-NH-Lys(α-NH-Pyroglutamoyl)-Trp-Ala-Pro (peptide)
peptide 1: Y[dA]EGTFISDYSIALDKIHQQDFVNWLLAQK
peptide 2: [pGlu]KWAP-OH
modifications: not fully specified (C-terminus); printed as [^2D-Ala^14Leu] GIP(1-30)-βAla-βAla-ε-NH-Lys(α-NH-Pyroglutamoyl)-Trp-Ala-Pro; also: linker at chain B 2 to a chain's C-terminus via βAla-βAla
notes: also called [^2D-Ala,^14Leu]; GIP-(1-30)-β-Ala-β-Ala-Lys(α-NH-Pyroglutamoyl)-Trp-Ala-Pro-COOH
B4 was tested. Which “GIP RBA % inhibition at 10 nM” value (human GIP receptor) did it give?
Its value is 66%.

B5: [^2D-Ala] GIP(1-30)-Ado-Ado-Aun-βAla-βAla-ε-NH-Lys(α-NH-Pyroglutamoyl)-Trp-Ala-Pro (peptide)
peptide 1: Y[dA]EGTFISDYSIAMDKIHQQDFVNWLLAQK
peptide 2: [pGlu]KWAP
modifications: not fully specified (C-terminus); printed as [^2D-Ala] GIP(1-30)-Ado-Ado-Aun-βAla-βAla-ε-NH-Lys(α-NH-Pyroglutamoyl)-Trp-Ala-Pro; also: linker at chain B 2 to a chain's C-terminus via Ado-Ado-Aun-βAla-βAla
With B5 as the binder, how does the “GIP RBA % inhibition at 10 nM” value (human GIP receptor) read?
Its value is 70%.
